For assay [1], the target named is T1, FEM1B-EB-EC ternary complex (human, UniProt Q9UK73 1-627; Q15370 1-118; Q15369 17-112).
T1 construct: FEM1B, human, full-length (FEM1B^FL); elongin B (EB, ELOB), human; elongin C (EC, ELOC), human; written as one protomer; also called FEM1B-elongin B-elongin C; FEM1B-ELOB-ELOC; source: E. coli BL21(DE3), co-expressed, purified (Ni-NTA, SEC); copies: + +
In words: ITC; peptides (0.5-1 mM) titrated into 50 μM protein in the cell, 25 °C; 20 mM Tris, 200 mM NaCl, pH 7.5, 1 mM EDTA; one-site binding model. To be noted: both partners purified.

Assay [2] has as its target T2, FEM1B-EB-EC ternary complex with FEM1B D356A/V391A/Q394A/F501A/H502A (human, UniProt Q9UK73 1-627; Q15370 1-118; Q15369 17-112, D356A | V391A | Q394A | F501A | H502A).
T2 construct: FEM1B, human, full length, quintuple mutant of the aromatic (psi) pocket; elongin B (EB, ELOB), human; elongin C (EC, ELOC), human; also called 5A mutant; FEM1BFL-EB-EC D356A/V391A/Q394A/F501A/H502A; source: E. coli BL21(DE3), purified in the same way as the WT protein; copies: + +
In words: ITC; SUMO fusion peptides (0.5-1 mM) titrated into 50 μM FEM1B-EB-EC in the cell, 25 °C, 20 mM Tris, 200 mM NaCl, pH 7.5, 1 mM EDTA; one-site binding model. To be noted: both partners purified.

The Kd is a measure of binding affinity in units of concentration. Higher therefore signals a looser complex. Molecule KAADHLHKFHENDNGAAAGDLWQ [CUX1 C-degron F-22A, SUMO fusion] yielded a dissociation constant (Kd) in assay [1] of over 500 µM.

B1: SUMO-(GGGS)2-CDK5R1 298-307 WT (peptide)
chain: KKRLLLGLDR
notes: CDK5R1, human, C-terminal 10 residues; also called CDK5R1 10-mer; 10-aa CDK5R1 C-degron; source: E. coli BL21(DE3), purified (Ni-NTA; SEC for ITC); not shown: SUMO with (GGGS)2 linker, N-terminal, kept
For orientation: stoichiometry N means a count of units in the complex or per binding partner. Turning to B1, the “stoichiometry N” value in assay [2] was found to be 0.46.

Regarding KKHSLDLLLRHLSP [CCDC89 C-degron variant with deletion of nine residues in the linker region], the Kd in assay [1] is over 50 µM.

B2: SUMO-(GGGS)2-CDK5R1 285-307 WT (peptide)
chain: VFSDLKNESGQEDKKRLLLGLDR
notes: CDK5R1, human, C-terminal 23 residues; also called CDK5R1 23-mer; 23-aa CDK5R1 C-degron; source: E. coli BL21(DE3), purified (Ni-NTA; SEC for ITC); not shown: SUMO with (GGGS)2 linker, N-terminal, kept
As for B2, in assay [2], binding was put at a Kd of 5.7 ± 0.8 µM and the “stoichiometry N” value came out at 0.16.

(Values after publication PMC11053023 (Nature Communications, 2024).)
